Assay results from patent US10391180B2, “Self-assembling complex for targeting chemical agents to cells” (CEDARS-SINAI MEDICAL CENTER, priority 2007, dated 2019).

How the values were obtained:
breast cancer cells = assay: HerDox trafficking, immunofluorescence against HerPBK10 in fixed cells; type: cell-based
Protocol: FIG. 15 illustrates HerDox trafficking in breast cancer cells. Cells incubated with HerDox at 37° C. were fixed at the indicated time points and processed for immunofluorescence using an antibody against HerPBK10. Images were captured using confocal microscopy under fluorescence and brightfield. Green, HerPBK10; Red, Dox. n, nucleus Bar, ˜8 microns.
To determine whether Dox remains attached to HerPBK10 during uptake, the inventors used immuno-fluorescence against HerPBK10. […] In fixed cells, nucleolar accumulation was not detectable as in the live cells (FIG. 14 (B)).

[1] = system: SKBR3, MDA-MB-435, MDA-MB-453, HeLa, MDA-MB-231; assay: Cytotoxicity dose curves on lines displaying differential HER2 (CD50); type: cell-based; settings: range of HerDox doses
Protocol: FIGS. 17 (A)-(B) illustrates relative cell surface HER subunit levels and cytotoxicity on cell types. FIG. 17 (A) depicts a graph of relative cell surface HER subunit levels as measured by ELISA. Cells were incubated with anti-HER subunit antibodies followed by HRP-conjugated secondary antibodies using standard procedures. Relative cell numbers were measured by crystal violet staining and quantified by measuring crystal violet absorbance at 590 nm. Relative subunit levels are reported as the ELISA signal of each cell population normalized by the relative cell number, or Abs 450 run/590 nm. FIG. 17 (B) depicts toxicity to cells displaying differential HER2. Cytotoxicities from a range of HerDox doses were assessed on each cell line by metabolic assay and confirmed by crystal violet stain. CD50 values shown in log scale were determined by non-linear regression analyses of HerDox dose curves using a scientific graphing program and confirmed using a calculator. The relative HER2 level of each cell line is shown next to each CD50 value.
The inventors measured cell surface levels of HER subunits on various cell lines and types described herein, as previously described levels may not reflect the actual levels in the available cells used. The inventors acquired the indicated cell lines from ATCC and the NIH/NCI and profiled these with respect to HER subunit levels (FIG. 17 (A)). […]

HER2+ tumors = assay: HerDox vs Dox biodistribution by Dox fluorescence imaging; type: in vivo, mice
Protocol: FIGS. 11 (A)-(B) illustrates preferential targeting of HerDox to HER2+ tumors. Tumor-bearing mice were injected with 0.75 nmoles of HerDox or Dox via the tail vein and imaged with a custom small animal imager. FIG. 11 (A) depicts imaging of live mice after IV delivery of HerDox. Tumors are indicated by arrows. FIG. 11 (B) depicts imaging of tumors and tissues harvested at 3 h after injection of HerDox or Dox. Fluorescence signal from Dox is pseudo-colored according to the color bar, with a shift toward 100 indicating high fluorescence intensity. FIG. 11 (B) illustrates a comparison of the targeted delivery of Dox to HER2+ breast cancer cells with minimal delivery to other organs and tissues using a delivery system in accordance with an embodiment of the present invention (left panel), as compared with Dox administered alone (right panel).
Dox emits a red fluorescence upon appropriate wavelength excitation, which can be used to detect biodistribution after systemic delivery of HerDox. Mice bearing 4-week old) tumors (˜700-800 mm^3) received a single tail vein injection of Dox or HerDox ([…] with respect to Dox cone) and images of live mice captured in real time, or of organs/tissues harvested at ˜3 h postinjection were acquired using a customized macro-illumination and detection system. Fluorescence was evident throughout the body at 10 min after HerDox injection, then quickly accumulated at the tumors by 20 min and remained detectable in the tumors up to 100 min after injection (FIG. 11 (A)).

U251 human glioma cells = assay: Toxicity to glioma cells, cell counting; type: cell-based; settings: 4 hours, counted after four days
Protocol: FIGS. 20 (A)-(B) illustrates HerDox is toxic to glioma cells. FIG. 20 (A) depicts HER immunofluorescence on U251 human glioma cells. Images were captured using laser scanning fluorescence confocal microscopy. FIG. 20 (B) depicts a graph of HerDox vs. Dox toxicity to U251 cells. Significant differences were determined by 2-tailed tests.
U251 cells growing in dishes were incubated with either HerDox or Dox (at either 0.5 uM or 1 uM) in the culture medium for 4 hours at 37° C., 5% C02, after which fresh complete medium was added to increase the final culture volume approximately four-fold, and the cells maintained at 37° C., 5% C02 for four days. Cells were trypsinized and counted on the last day.

[2] = harvested at 3 h after injection
[3] = single tail vein injection, live imaging

B1: HerDox: non-covalent complex of HerPBK10, a small double-stranded nucleic acid and intercalated Dox (conjugate)
chain: LPPRLKEMKSQESAAGSKLVLRCETSSEYSSLRFKWFKNGNELNRKNKPQNIKIQKKPGKSELRINKASLADSGEYMCKVISKLGNDSASANITIVESNEIITGMPASTEGAYVSSESPIRISVSTEGANTSSSTSTSTTGTSHLVKCAEKEKTFCVNGGECFMVKDLSNPSRYLCKCQPGFTGARCTENVPMKVQNQEKAEELYMRRAAMYEEGPPPSYESVVSAAPVAAALGSPFDAPLDPPFVPPRYLRPTGGRNSIRYSELAPLFDTTRVYLVDNKSTDVASLNYQNDHSNFLTTVIQNNDYSPGEASTQTINLDDRSHWGGDLKTILHTNMPNVNEFMFTNKFKARVMVSRLPTKDNQVELKYEWVEFTLPEGNYSETMTIDLMNNAIVEHYLKVGRQNGVLESDIGVKFDTRNFRLGFDPVTGLVMPGVYTNEAFHPDIILLPGCGVDFTHSRLSNLLGIRKRQPFQEGFRITYDDLEGGNIPALLDVDAYQASLKDDTEQGGGGAGGSNSSGSGAEENSNAAAAAMQPVEDMNDHAIRGDTFATRAEEKRAEAEAAAEAAAPAAQPEVEKPQKKPVIKPLTEDSKKRSYNLISNDSTFTQYRSWYLAYNYGDPQTGIRSWTLLCTPDVTCGSEQVYWSLPDMMQDPVTFRSTRQISNFPVVGAELLPVHSKSFYNDQAVYSQLIRQFTSLTHVFNRFPENQILARPPAPTITTVSENVPALTDHGTLPLRNSIGGVQRVTITDARRRTCPYVYKALGIVSPRVLSSRTFKKKKKKKKKK
modifications: left off: small tags and cut ends
notes: non-covalent complex of HerPBK10, a small double-stranded nucleic acid and intercalated Dox
- location of Dox and HerPBK10 during uptake (breast cancer cells; 30 and 60 min): increasing levels of Dox accumulate in the nucleus while the majority of HerPBK10 remains in the cytoplasm
- integrity of HerDox during uptake (colocalization of HerPBK10 and Dox) (breast cancer cells; 15 min of uptake): still intact
- relation of CD50 to cell surface HER2 level [1]: inversely correlates with cell surface HER2 level
- Dox fluorescence in heart, spleen, lungs, and skeletal muscle (HER2+ tumors; [2]): did not exhibit any fluorescence
- Dox fluorescence in kidneys (HER2+ tumors; [2]): barely detectable
- Dox fluorescence in liver (HER2+ tumors; [2]): substantially lower levels of fluorescence
- Dox fluorescence in tumors (HER2+ tumors; [2]): intense fluorescence
- time by which fluorescence accumulated at the tumors (HER2+ tumors; [3]): ≤ 20 min
- time fluorescence remained detectable in the tumors (HER2+ tumors; [3]): up to 100 min
- toxicity relative to the equivalent concentration of Dox (U251 human glioma cells; 0.5 uM or 1 uM): 8-10 times
- less HerDox eliciting the same toxicity as Dox (U251 human glioma cells): 10 ×
